Assay results: patent US20170183645A1
Where “and” joins values, the source holds several entries; their conditions need not be identical. Equal values may be shown once.

B1: Anti-Flu neuraminidase VHH (clone Flu 27-8) (VHH)
VHH: QVQLVESGGRLVQAGGSLRVACVASGGTFSSYVMGWFRQAPGKERESVASITRDGDTTFYADSVKGRFTIARDNAKNTVYLQMNSLQPEDTGVYYCAAAVQYGTLWSRQYDYWGQGTQVTVSS
B2: humanized VHH h27-8GL (monovalent) (VHH)
VHH: QVQLVESGGGLVQPGGSLRLSCAASGGTFSSYVMGWFRQAPGKGLESVASITRDGDTTFYADSVKGRFTISRDNSKNTLYLQMNSLRAEDTAVYYCAAAVQYGTLWSRQYDYWGQGTLVTVSS
B3: Bivalent homodimer of humanized anti-Flu neuraminidase VHH (clone Flu h27-8GL.h27-8GL) (VHH)
chain: QVQLVESGGGLVQPGGSLRLSCAASGGTFSSYVMGWFRQAPGKGLESVASITRDGDTTFYADSVKGRFTISRDNSKNTLYLQMNSLRAEDTAVYYCAAAVQYGTLWSRQYDYWGQGTLVTVSSAHHSEDPSSKAPKAPMAQVQLVESGGGLVQPGGSLRLSCAASGGTFSSYVMGWFRQAPGKGLESVASITRDGDTTFYADSVKGRFTISRDNSKNTLYLQMNSLRAEDTAVYYCAAAVQYGTLWSRQYDYWGQGTLVTVSS

The binders below were run against influenza H5N1 neuraminidase (H5N1 A/Thailand/1(KAN-1)/2004) (influenza A virus H5N1 A/Thailand/1(KAN-1)/2004).

Binder	ELISA reactivity compared to control protein (BSA)
B1	2.48
B2	2.27 and 1.78
B3	3.73 and 2.15

The binders below were run against H3N2 influenza neuraminidase (influenza H3N2 (strain not stated)).

Binder	ELISA reactivity compared to control protein (BSA)
B1	1.08
B2	1.34 and 1.09
B3	1.67 and 1.13

The binders below were run against H1N1 influenza neuraminidase (influenza H1N1 (strain not stated)).

Binder	ELISA reactivity compared to control protein (BSA)
B1	1.89
B2	1.62 and 1.21
B3	2.44 and 1.31
